Nine molecules from patent US20230226096A1 (Orna Therapeutics, Inc., priority 2020, published 2023) can be followed below.

This data set has as its system HEK293 cells. The format is cell-based, human. The note with it: luminescence from secreted Gluc in supernatant 24 hours after transfection of HEK293 cells; circular RNA encoding Gluc with the named IRES (UTR truncated to 675 nt).

B1: Potamipivirus B (nucleic acid)
DNA: TTTCAACGTCGTGGCTGACGTTAAAAAGCCACAATTCCACTTACCTTTTACCTTTTATGTTTAATGTTTGTTAGTTTTGTGATCTTTAACAAATAGATCTAAATAATTTGTTGGTAACCAATCTCGGATGTTTCGGCTGCATTGTAGTTTATTTATTTCATTTTAGTTGTAGGTGGCCACTACGTCCTGGAATCATACATGGTAACATGTACCTCGGCGGTTATCCACTATTACGCTAATCTAAGAATATTTAAATGAAAATGTAAGTGTTACGGCTGACTTTGGGCCTGATAGTTAAATGCTCGCACTGACAGATAGTACCCTCCTTTAGGATCGATTCTGTTACATGGGATCCATTTTGGTGCCCCACTGATTCAACCTCTTTGTTGAAAAAGAGTTAGCATACTACAAATTTTCCAAACAAAAACCCTTTTTAATGACTACAACTTATGATTTTATGAATTTTACTGCTCTTGAAAAAGATATTTTGACATTGATCGCTGTACTGTTTCAGACATTCATTGCATCCATTTTTGTTGGCTACTCCTCACAAACTCAAAACTTTTCCACACGAGAAACCTTGTTTATTGAATTTTGCCTTTATATTTTGGAACTTGTTGTTGGATTTATTGTTTGCTTAATTATTGACCTCACACCTGTTTTAAACACTACAAT
modifications: Potamipivirus B
B1 came in with an Expression of 7.20E+05.

B2: Parechovirus A17 (nucleic acid, listed as Parechovirus sp.)
DNA: CTCTATTAGTGAGATACCACGCTTGTGGACCTTATGCTCACACAGCCATCCTCTAGTAAGTTTGTAAGACGTCTGGTGACGTGTGGGAACTTGTGGGAATCAATATTTTGCTTTAAAGCATCCATTAGCCAGCGGATAAAACACCTGGTAACAGGTGCCTCTGGGGCCAAAAGCCAAGGTTTAACAGACCCTAGTGGATTGGTTTCAAAACCTGAAATATTGTGGAACACACTCAGTACCTACTGATCTGGTAGTAATGCAAGCACTAGTTGTAAGGCCCACGAAGGATGCCCAGAAGGTACCTGTAGGGAACAAGAGACACTATAGATCTGATCTGGGGCTGGCTACCTCTATTTTGGTGAGTCAGTTAAAAAACGTCTAGTGGGCCAAACCCAGGGGGGACCCTGGTTTCCATTTATTTTACAAAGGCACT
The molecule B2 gave an Expression of 1.20E+06.

B3: Potamipivirus A (nucleic acid)
DNA: CACATGGAAAGCTTTTCGCTTCCATGTTTACGCACACACTCTCTTTGACACCCTGTTGTATGGTGTTAAACTACAACATTTGTCTGTCTATAATCGTTTATTTTGTTTACCCTATATGTACCCAAGTATTTGATTGCTTGACTCACATAAGCATCGGTAACCCATACTGTTTTATGAGCTACTACCTCTGCTGTCTACATACATTTTATATGAATGGTTTGAGCTCTGCCTCAGGATCAAACATGGTAACATGTTCCTTTGGTCAGTTAGAATCTTATTGTATAATCTAAGGTGTCTATTAGTACGTAGAAAGTTGTAACACATATGGGGCCTGATAGCCGCTATCTCTGATGGATGTAAGGTAACCTTCTTTAGGTCTGATACATTCTGCACAGGATCCAATTTTCGGTGCCCTGTACGAGTGCACTCTTATGCACGAGGACGAGATATGCTACAACCCACTGCAAATTTAAACCCAAACTTTAACA
modifications: Potamipivirus A
For the molecule B3, the Expression is 8.43E+05.

B4: Parechovirus A8 (nucleic acid, listed as Parechovirus sp.)
DNA: GGGCCTTATACCCCGACTTGCTGAGTTTCTCTAGGAGAGTCCCTTTCCCAGCCCTGAGGCGGCTGGATAATAAAGGCCTCACATGTAACAAACATCTAAGACAAAATAATTTGCCTTGCACCTGGTCCCCACTAGTTGAAGGCATCTAGCAATAAGATGAGTGGAACAAGGACGCTTAAAGTGCAATGATAGTTATCTTTTCTAACCCACTATTTATAGTGGGGTGGTGGATGGCGCACCATAATTCTAATAGTGAGATACCACGCTTGTGGACCTTATGCTCACACAGCCATCCTCTAGTAAGTTTGTGAGACGTCTGGTGACGTGTGGGAACTTACTGGAAACAATGCTTTGCCGTAAGGCTTTCATTAGCCAGCGGACCACCACCTGGTAACAGGTGCCTCTGGGGCCAAAAGCCAAGGTTTAATAGACCCTAATGGAATGGTTCAAACCTGGAGCATTGTGGAAAGTACTTAGTACCTGCTGATCTGGTAGTAATGCAAACACTAGTTGTACGGCCCACGAAGGATGCCCAGAAGGTACCCGTAGGTAACAAGTGACACTATGGATCTGATCTGGGGCCAACTACCTCTATCTTGGTGAGTTGGTTAAAAAACGTCTAGTGGGCCAAACCCAGGGGGGATCCCTGGTTTCCTTTTATTTTACTTTGTCAAT
Regarding B4, the Expression worked out at 1.61E+07.

B5: Porcine Sapelovirus A2 (nucleic acid, listed as Sapelovirus sp.)
DNA: TTGAAATGGGTGTGGGGTACATGCGTATTACGGTACGCATATATTCCACACTCATTTCCCCCCCTCCACCCTTAAGGTGGTTGTATCCCCATACCTTACCCTCCCTTCTAAAACAGATGGACAAATGGATTTGAACTTATGGCAAGTGAATATGGTATGACTTTGGATACACTTTAACGGCAGTAGCGTGGCGAGCTATGGAAAAATCGCAATTGTCGATAGCCATGTTAGTGACGCGCTTCGGCGTGCTCCTTTGGTGATTCGGCGACTGGTTACAGGAGAGTAGGCAGTGAGCTATGGGCAAACCTCTACAGTATTACTTAGAGGGAATGTGCAATTGAGACTTGACGAGCGTCTCTTAGAGATGTGGCGCATGCTCTTGGCATTACCATAGTGAGCTTCCAGGTTGGGAAACCTGGACTGGGCCTATACTACCTGATAGGGTCGCGGCTGGCCGCCTGTAACTAGTATAGTCAGTTGAAACCCCCC
B5 gave an Expression of 4.34E+06.

B6: Simian Sapelovirus 1 (nucleic acid, listed as Sapelovirus sp.)
DNA: CCAAGGATCTGTTGCATAGGCGTTGTATCCCCTAACCTTTTACCTACCCATCCCAATAGGACTGGTATTTCGGTTTTGATTGAGTAATGGATACTGATTCTATACCTGTTACCCATTCAGGGGAAAAATGGAGTTTCTTTCATGGATCTGACTTGATATGACCAAGAGTCAACACTTTGCGTGTTGGCCGTATGGAATGCTTTAAGGTTTATTCTTTGGATTATGACTTCAGGGTTGGCCGCCCAGGATAAAAGGCAATTGTGGTAAGTGATGTTAGTCATTGGTGGTTGAAACCTGCCTAAGACGTCCTAGGTCTACGCTGTGCGGGCCGAAGTAAGCTTAGGAATAACAGGGAGTATGCCATTTTCTGCTTTCACCCAACACGACCGTACACGAAAGAGCTAGAGGCACTTTGGGGCAAAGGGAAAAGCTTTGCTTAGCCCGAATGTTCATTTGAGTCCTTGACGAATGCGTCCCGTCTGTCCCGACGGTGAGGCGTATGGCGCATGCTCATGGCATTACCCAATGGTGTATCTGTGAGGGGGGGGCTCCTCACACTTAGTCTAGTGCTACCTGACAGGGCCGCGGCTGGTCGTTTGTGTATGGTATAACCAGTAGTAATCCCCCATGGATTGCTTTAACTTCCCCTCCTCCCTTACCAAGACATTCTCTAAG
Consider B6, for which the Expression was 6.55E+07.

B7: Oscivirus (nucleic acid, listed as Oscivirus sp.)
DNA: CCTCGGTCCCTCTTTCCGTCGCCGCCCACGACGTTAAATGCGGTGTTGTGGTGCTTAGGTGCCACACCACTGCTATTTGGGTCCCCCTTTCCCCTATATATGTTTGTTTGTTTATTTCAATTTCTTGAGGATTGGCACCTCCTTATGCCAAATCTAAATCGTGGAGGATCCCAGGCTTTCTGGTCTTTAACAGAACTCCACGTCCAGGTCATAGAAACTGGTTGGTAGGCTGCCTGAGTAGTCCATTTGCTAGTAGTCCCTTGTGAACAGGGTGGCTCCCGTTTACTGCTGGTATTCCCGGTGTAGGTCGCCATGGTGGTAACACCATCCTGCATTGTGTGTGAACCAGTACCGCAAGGATAGCAAGGTATGAACACTTGTGGACGAAATGGTAAGTGATCAATTCACTTTCATGGCCGGAAGGTCACGTGGCAATCATGCCACCCAGGTACCCTCCTCTGGGAGGATCTGAGGGTGGGCTAAGCAGACCCTGCCATGTGGCTGAACTTTTCCCTTATTGTTTTACTTTGTAACATTTATAGTTGTGTTAGTGATTTGTGTGTTGTGCCCTTGTGAGCTATATCCAGTATAAGTTCGCAGCTAGAAGTTAATCCTTCGACATCGGCTGTATTGGAA
B7 gave an Expression of 4.55E+07.

B8: Parechovirus A3 (nucleic acid, listed as Parechovirus sp.)
DNA: AGAGTCCTTTTCCCAGCCAGAGGTGGCTGGTTAAATAATACCTACTGTAACAAAACATCTAAGATGTAACAACCACACACCTGGTCTCCACTGGCCGAAGGCAACTAGCAATAAGGCAGGTGGGTTCAGACGCTTAAAGTGTGTTGTACATATTCTTTTCTAACCTGTGTTTTACACAGGGTGGCAGATGGCGTGCCATAACTCTAACAGTGAGATACCACGCTTGTGGACCTTATGCTCACACAGCCATCCTCTAGTAAGTTTGTAAGATGTCTGATGACGTGTGGGAACCTGTTGGAGATAACAGTTTGCTGCAAAGCATCCCACTGCCAGCGGATCTACATCTGGTAACAGATGCCTCTGGGGCCAAAAGCCAAGGTTTAACAGACCCTTTGGGATTGGTTCAAACCTGAACTGTTATGGAAGACATTTAGTACCTGCTGATTTGGTAGTAATGCAAACACTAGTTGTAAGGCCCACGAAGGATGCCCAGAAGGTACCCGTAGGTAACAAGTGGCACTATGGATCTGATCTGGGGCCAGCTACCTCTATCTTGGTGAGTTGGTTAAAAAACGTCTAGTGGGCCAAACCCAGGGGGGATCCTGGTTTCTTTTTAATTTAAGTAATCACT
Take B8: the Expression is 3.58E+06.

B9: Beihai Conger Picornavirus (nucleic acid)
DNA: GGGACAACCCCACAGCTGGTACAACCATTGTGGGTTGGTCTCCACCCTTTTTCAACCGTGGCAACTTCGGTTAAAGTTGCAAATCCCCCCTCTCCCTATTCCACCTCCCTTACTTTCACTCCCCATATATGGTCCCAGATTTTATTCTACCTCTTTATATTTTTATTTAGTACAGTGGTGGTGAATTACTCCCAGCATAAACTTTGCTGGATCAGTGTTCATCAAGCATACTAATTACTAATGTACTGAGCTATACTATTATCTGGCATCTCACCTGGATAACCGGTGTGACCATATTTCCTAGGTTGCCTCCCTATGTATTTTGTAGCACCTGTGCATCTGCACGTTGGGGCGACAAATTGTAGGTTTCCTGGCACGGGTAAGAATTGTGGAAAGCTAGTATGCAGTTAATGCAAGGGCGCGTTTTTCGCTACCCCGACACTGCTAAAGTTTTTGGGAGGGGTCCCTTAAACATTTCTAGTATTGAGTGATAGCTTTGCGGCAGGTCACCACAACCTTACTATAAATAAACCTGTTGAATCTCAC
As for B9, the Expression worked out at 1.15E+06.
